# Test: label from the status in PepcDB records
row,Sequence,protein production
1,MSRPDDIDVRPIAEAETADWIRALNTGFLRSPEVSEREVADRSSYLVPARTLGAFDNGRCVATFRSFPQELTAVGGASVPADAISNVTVTATHRRRGLLTRMMAQDLAAAKERGDVVATLIAAEYPIYGRYGFGAATHSTEWTID,failed
2,MSRPSVNRSGEMEIFAKAVELGGFSAAARHYRMTPSAVSKLVLRLEERLGVRLVNRSTRKLQLTPEGHAFYERTVRILADIDEAERSASAGESPVGRVRLNVNASFGTHVLMPLVPEFRAHFPAVSLDIVMTDAVVDLMEARADVAIRAGPLKSSTLIARKLGATRMMIVAAPSYIERYGMPSSLEELKGHERLGFCYARAVDGWPLRTDGETVVLPASGAVQVSDGEGLRQLALAGAGLARLAEFTVREDVSARRLVPVLEDLNPGDLEEVHAVYLGQGGALPARVRAVLDFLARHARITPGQDAGRRRTSPIPAPA,failed
3,MSRQAEDLMVRTLSDASSLFGKERYKKALEKLDKAEKLAEKTKRTDILCRVLLQKGAVMNSMGKPDEGQDLYDKALDIYRTSNLNEQESSVLKHTLSNTFSELAKHFKMVDSIENAEKCYLNEIKVYEILLEKDPEDEDSNLEIARVFKAIGDLYEYFKPEKMDPETERQYYEKILDIREKAFELLPDSETYIYDLAHALGKLVDYYIIRQDYKSAIQFQERVVEVMEELIDLLANWKDLKAKSNAYDKLGSLYAEIGEEELAQEQYSKALEYYGMIFDDELWPLSVKAMLASELMERGKTLLLLKKYESAKESMDVALDFLEGVDKEEMEDSTEESLDLASVILGEGYEEESEDSGYLAELAGIFREYAKTLSDLNRNEEAEEFTAKSEKILRKLA,failed
4,MSRRAGHNGRPLLEVPMLLRGLTWLVLFQLLGTGLNVLLLPMLPGPIIGLVLLFGYFLARGEVGKPVNEAAGSLLRYLPLLLVPAAVGVMAYAREIAADFWAIVGALVLSLLLSFLFAGWMMQKLIDRQQRRREES,failed
5,MSRSDNGGEDKGLRITRREFLAAAGAGAAAFIVGAVVGSTAFPREKEVVKPGPTQTVTATATETATVTETQTQVQLVEKKYPKVKIANVSELREGQPVFKEYIGHRIVVIKLGEEAVNGVGPDKDIVAFSMLCTHMGGFLIFDGNTKTLICPLHFSQFDPSRGGQPVVGHATEYLPQVILEYDEASGDIFAVGFTALVYGRYDNLQGVKA,failed
6,MSRSPEQDSDWMTGVGDSAAGESARVARLVRVAQHIEMHADEALTLSSLAKVAALSPSRLQKQFKAAFGVSPKAYQDAVRMRRFKQSLKDGSKVTDAIFASGFGSVSRVYGEANRSIGMPPRAYRAGGAGEVIVYAGRTTALGLMMMAATERGVCFVEFGDDEASLVGRLRSEFPKAELTASPARNAPELDAWMEALDQHISAGAPRPDLPLDMRGTAFQVKVWQFLLSIREGDVLSYSEVAARIDKPRAVRAVASACGKNRIGVLIPCHRVLRGDGGLGGYRWGLERKRALLEAERRSVTRE,failed
7,MSRSVPDRWNMHKPMLCDSLPTASRTAAAILNLAQREDVTAEALAQLIQTDPALTGRILRFANAPAQGTRRPVASVIDAIDLVGLPAVRQFALSLSLIDAHREGRCEAFDYAAYWQKSLARAVALQSITAQASTVAPKEAFTLGLLADVGRLALATAWPEEYSECLRKADGEALIALERERFATDHDELTRMLLTDWGFPQVFIDALQLSQQDEIRDEGRTGRFARQLALAQHIADHRLAEEPRRAALSPLLRAEARRCGLGDEDLARLLADPPADWLDWTRTIGLPGDAPTGGAEPSRPPPQTDEKLHVLLADDDPIMLARLSRQLEADGHHVASRRDGETALAYALEHQPEMVITDWHMKPMNGLELCRALRESALGGNVYIVMLTASESEDALVEAFGAGIDDYVIKPPSVRVLKARIRAGQRIITLHKKLARERKEIERYSSELAAANRRLELMAHTDQLTGLPNRRYAMDRLEREWAQARTFDRPLSIMMLDLDWFKSINDSLGHDAGDQALVHAARVMRETVRTSDVVCRMGGEEFLIIIPDTAGPAAIQTAERVRSAVEQQQPAKLKLSRPLTASIGVADSTSAPSLKDLLLKADNALYQVKQNGRNGVRYAGLLEHHHHHH,not failed
8,MSRTIAETPRPAVASMSSGCIPPHHRPDTLKQRWGTPAAVCLLVTCLFAMTLLTTGCKPPRRTPPTLPDRPDMATVEQPVVPPATVDGKDLDAPQTPKERIALALRLLDDGGDGADPTQAVQLIEQDATTGYAPAQDLLARLSLEGYGTAKDPARAFALAIEAARQGLPDAQRLAGTMYTLGLGTARDLEQGMRWLREAADAGDGEAAAMVADYYRQGLGVERNDTEAFLWTHRAAERGVKRAALWLGLHYHYGVGTPADQKQAFALLRPFADEGDAEALTIIALLLHKGEGVAQDRKAALRYFEKGAAAGDPVAQLDLGVLYHQGDGVTRDMDKARGLFRQCAEGGNARCMTLYASMLEEGEGGPSDPAEALAWYMVASMAGDDDATPFLDDLRSRITAEQAAQGKVRATAIIRSLTASPAADEASRQSSGQTAGQASGHASGQTPESTSARTSAPVPSALPREAAGKRPTVLP,failed
9,MSRVKILDEETISHIAAGEVVERAASVVKELVENAVDADAQIIRIGISADKTGITKISVTDDGIGMDFDDALLAFRQHATSKISRPEDLDGITTLGFRGEALASIAAISKVTFTTKERGSPSPEAARVVIHGGELISHSAVGAPEGTSVLIDALFYNTPARRKFQKSVPTELSHVYDMVERIALSNRNISFVLLYNGKERFQTFGTGSYPDVIAAVFGSTFSKELTPVSGSFGPVKIDGWITRPGSEMKTTQTRFYLSINGRQVTSRQLQWAIREGYGTLLPKGMYPAAFLDIVLDPRDVDVNVHPTKREVRLSREREVMRCVQDAVYTSLHEERVFSTAPMPTLARETITTLPVEIVGEPVPVYAGKQEMHEARQAPLKQTEKQLRRTESADLPETDLFVPEVLGQIGDTYILAKNESGDLIVVDQHAAHERIMYDQLLARSSSAEAGQELIVPQPITLSKKETAALPDLLDVLAAAGYLLEPFGKDVWMVRSVPVVSSTLGDPDTIHAILDAALDGVGNTDEVLDRVLKTAACRAVVKGNTPLTIEQMQRLLRQLMATKSPYTCPHGRPTTIVLSKSRLAGMFLRT,failed
10,MSRVPEPSVFLVVDEAKRKARERGVGLIDLSIGSTDLPPPEAPLKALAEALNDPTTYGYCLKSCTLPFLEEAARWYEGRYGVGLDPRREALALIGSQEGLAHLLLALTEPEDLLLLPEVAYPSYFGAARVASLRTFLIPLREDGLADLKAVPEGVWREAKVLLLNYPNNPTGAVADWGYFEEALGLARKHGLWLIHDNPYVDQVYEGEAPSPLALPGAKERVVELFSLSKSYNLAGFRLGFALGSEEALARLERVKGVIDFNQYAGVLRMGVEALKTPKEVVRGYARVYRERALGMAEALKGVLSLLPPRATMYLWGRLPEGVDDLEFGLRLVERGVALAPGRGFGPGGKGFVRIALVRPLEELLEAAKRIREALD,not failed
11,MSSATKSSPATGGYLHYATLAPWKTLLRTRAYPGSLAGGSEATEATVAMELAEDWLVESLRLYQDFHAFDLSGATRVLEWVGEKGVFVAGYESLKKNEILHLILPLRLSVKENQGLYPERDFKVRHGGFSDRAVFDLKHVPDTRLLVTSGLPGCYIQVWQIREDNDVIEAVSTIDVQDKEESLWPRVSIFCSAAPGILHGARLSGLRTVDVESRKITYSSDTTDSESLSSLQVLDADTFAFCGTSGRLGLVDTRQKWAPLETVSPRAGSSGERWCAEVRSKGQGPGPCIASLGSDGQLCLLDPRNLRDPVSSAQCPVFKSSPDPELLRVTWAPGLDNCLAISGFDGTVQIYDVTSWDGKKTQVEALFIHKGHIFLDGNEVESAPLVTTHTWHPSKPRTLLSAASDAALHVWDWVDLQAS,failed
12,MSSEAVDATTLVIIPTYNELENLPLIVDRVRTATPDVHVLIVDDNSPDGTGERADKLAADDDHIFVLHREGKGGLCAAYMAGFQWGLERDYQVLCEMDADGSHAPEQLHLLLAEITNGADLVIGSRYVPGGRVVNWPKNRWLLSKGGNVYISVALGAGLTDMTAGYRAFRREVLEALPLDELSNAGYIFQVEIAYRAVEAGFDVREVPITFTEREIGESKLDGSFVKDSLLEVTKWGLKHRGGQAKELSKEMVGLLNYEWKHFKKRNTWLLEHHHHHH,failed
13,MSSEHSANGGPASAYGKPTFARASTPLPIQSAHMASDPIQITPSLTIPPSELVERFVRASGAGGQNVNKVSTAVELRFDVAGSPSLPEPLRARLLSRRDRRMTAEGVLVIDAQRFRTQDRNRDDARERLAEIISACLSVPKRRVATKPSHGAKLRRLDAKRERSHIKRGRSASHWE,failed
14,MSSERVLSNARVVSAERVFVGSVLLRDGLIAAVDEGRSHLAGAEDLGGDYLLPGLVELHTDNLEKHMTPRPGVDWPSASAVLAHDAQIVSAGITTVFDALSIGDVNPKGKRMQQLPKMLEAIGEAAASGDARADHRLHLRCEVSHPQTLEVFRELVEHPLVQLVSVMDHAPGQRQFARLEKYREYYQGKYHLSDAEMDAFIVEQVANSERYSDAARAAIVDVCQGRGLSVASHDDATLAHVRESAGYGMAIAEFPTTVEAARASHEHGLQVLMGAPNVVRGGSHSGNVAAAQLAGIGVLDILSSDYYPASLLHAALLLAGEHSEYDAIRYDLPRAVAMVSRTPALAAGLTDRGEIRVGLRADLLQARALGNNQPVVRQVWRGGQRVF,failed
15,MSSFLRPAVSGQDPFTTGNYRAISSHLAITPPVSVVIPAMNEAENLPYVFKSLPDWIHEVVLVDGNSTDGTVEVARELWPDVKVVEQRGKGKGDALITGFEACTGDIIVMVDADGSADGQEIVSYVSALVSGADFAKGSRFANGGGTSDMTPIRKLGNRVLCAAVNAKFGARYTDLCYGYNAFWRHCLDQIDLDCTGFEVETLMNIRVVKAGLKVQEIPSHEYLRIHGASNLRAVRDGLRVLKVILKERSNRRALRSRPHAMQLNSGQGEVSLEHHHHHH,not failed
16,MSSGKVIVYGGKGALGSAILEFFKKNGYTVLNIDLSANDQADSNILVDGNKNWTEQEQSILEQTASSLQGSQVDGVFCVAGGWAGGSASSKDFVKNADLMIKQSVWSSAIAAKLATTHLKPGGLLQLTGAAAAMGPTPSMIGYGMAKAAVHHLTSSLAAKDSGLPDNSAVLTIMPVTLDTPMNRKWMPNADHSSWTPLSFISEHLLKWTTETSSRPSSGALLKITTENGTSTITPQ,not failed
17,MSSHPPIRSYVLRQGYFSNAQRHAYESLLPRYGIPLTEEPVDLDSIFGRTAPGILEIGSGMGETTAEIARQHPEKDFIAIEVHAPGIGSLLGQIEKHRLTNLRIIPHDAKLVLQQMFTSESLDGIHIFFPDPWPKARHHKRRLIQPDFVSLLCDRLKPGGYLHIATDWEDYATHILHVLRSEERFVNTAVDYAARPAYRPLTKFEQRGMKLGHTIRDIIFTRTALEHHHHHH,failed
18,MSSHPYVTQQNTPLADDTTLMSTTDLQSYITHANDTFVQVSGYTLQELQGQPHNMVRHPDMPKAAFADMWFTLKKGEPWSGIVKNRRKNGDHYWVRANAVPMVREGKISGYMSIRTRATDEE,failed

# Source: a protein production outcome set (Wang et al. 2014)
